# From patent US20220211860A1, “PEPTIDE DERIVATIVES AND CONJUGATES THEREOF FOR TREATING CANCER” (priority 2019, published 2022)
# Values joined by “and” are separate entries in the source; they are usually repeats but may differ in a detail not shown here. Equal entries are not always repeated.
# Legend:
# [1] = test system: female NOD/SCID mice; test: Phase I: single-dose MTD in mice; format: in vivo; conditions: IV 10 mg/kg, 72 hr, individual animals, listed as LHRHD-(mc-vc-PABC)-MMAE
# [2] = test system: female NOD/SCID mice; test: Phase I: single-dose MTD in mice; format: in vivo; conditions: for Body Weight: individual animals
# Method: LD5-(mc-vc-PABC)-MMAE was administered IV to groups of 3 female NOD/SCID mice (23±3 g). Animals received an initial dose of 3 mg/kg. If the animals survived for 72 hours, the dose for the next cohort was increased. If one or more animals died, the dose for the next cohort was decreased. The testing stopped when all animals survived at the upper bound, or when two or three dose levels had been tested or when the upper or lower bound had been reached. […] Body weights were recorded pre-dose and at 72 hours after treatment. The animals were observed and mortality noted daily after compound administration for 3 days. Gross necropsy was performed on all animals without tissue collection. […] No mortality and body weight changes were noted, signifying the dose level was tolerated (Tables 2 and 3). The dose at 10 mg/kg was then determined for the following repeat-dose MTD study (Phase II).
# [3] = test system: α-tubulin polymerisation; test: α-tubulin immunostaining in TNBC and normal breast cells; format: cell-based; conditions: normal breast cells, 1 µM, 18 h
# Method: FIGS. 8A and 8B: The effect of MMAE and LD5-me-vc-PABC-MMAE (LM) on α-tubulin polymerization. (A) MDA-MB-231 (TNBC cell model) and normal breast cells (HMEC and MCF-10A) were treated with free MMAE and LM at 1 μM and PBS (control) followed by immunostaining of α-tubulin with primary and secondary antibodies. The α-tubulin signals were detected by LEICA SPE2 confocal LSM. (B) The α-tubulin signal intensity was measured by Fiji J software in normal breast cells (HMEC and MCF-10A) and MDA-MB-231. ****p<0.0001 is the significance in the signal intensity in each cell line treated with PBS and LM in comparison to MMAE-treated cells. ####p<0.0001 is the significance of the α-tubulin signal intensity in MDA-MB-231 cells treated with LM in comparison to MCF-10A and HMEC cells. […] Statistical analysis was made in Prism by two-way ANOVA followed by Tukey's multiple comparisons test. Error bars are standard deviations (STDV), n=8 (3 independent repeats).
# The intracellular effects of MMAE on α-tubulin polymerisation were examined using α-tubulin immunostaining in TNBC cells (MDA-MB-231) and normal breast cells (MCF-10A and HMEC) treated with MMAE and MMAE conjugated with LD5 (LD5-mc-vc-PABC-MMAE). TNBC cells and normal breast cells were fixed after incubating with […] of MMAE and LD5-mc-vc-PABC-MMAE for 18 h along with PBS as a control. […]
# [4] = In vitro stability (release of free MMAE, LC/MS), cell culture media; format: in vitro ADME; conditions: c-media, 1 μM, 37° C., 10 days
# Method: FIG. 11: Stability of LHRHD-(mc-vc-PABC)-MMAE (i.e. LD5-mc-vc-PABC-MMAE) in human plasma, mouse plasma, and cell culture media (c-media). The stability was measured based on the presence of free MMAE detected in the samples by LC-MS at each time point relative to time 0. Error Bars are standard deviations (STDV), p>0.05 and n=9 (mean is calculated from samples in triplicate in 3 independent experiments).
# The metabolic stability of LD5-(mc-vc-PABC)-MMAE was investigated in cell culture media (c-media), human and mouse plasma. An LC/MS method was developed to detect both free MMAE and the presence of any degraded species from the whole construct, LD5-(mc-vc-PABC)-MMAE. To evaluate the stability of the valine-citrulline linkage, LD5-(mc-vc-PABC)-MMAE at 1 μM was incubated in c-media, human and mouse plasma at 37° C. for a period of 10 days. Aliquots were taken at pre-determined time intervals (t=0, 1, 2, 4, 7, 10 days) and analysed by LC/MS for the release of free MMAE.
# [5] = Phase II: repeat-dose MTD in mice; format: in vivo; conditions: mouse, in vivo; female NOD/SCID mice, IV; MTD not reached at 10 mg/kg
# Method: (§1) LD-5-(mc-vc-PABC)-MMAE (10 mg/kg; determined by the results by Phase I) was administered IV once weekly on days 1 and 8 to groups of 3 female NOD/SCID mice (23±3 g). […] Body weights were recorded pre-dose and on days 1, 4, 8, 12 and 15. The animals were observed and mortality noted daily after first compound administration for 15 days. Gross necropsy was performed on all animals without tissue collection.
# (§2) Therefore, the MTD was not reached at this dose. With the corresponding ADCs bearing MMAE the MTD has been considerably lower.
# [6] = test system: female NOD/SCID mice; test: Phase II: repeat-dose MTD in mice; format: in vivo; conditions: for Body Weight: listed as LHRHD-(mc-vc-PABC)-MMAE, 10 mg/kg
# Method: as §1, §2
compound,measurement,setting,value
CCNC(=O)[C@@H]1CCCN1C(=O)[C@H](CCCNC(=N)N)NC(=O)[C@H](CC(C)C)NC(=O)[C@@H](CCCCNC1CC(=O)N(CCCCCC(=O)N[C@H](C(=O)N[C@@H](CCCNC(N)=O)C(=O)Nc2ccc(COC(=O)N(C)[C@H](C(=O)N[C@H](C(=O)N(C)[C@@H]([C@@H](C)CC)[C@@H](CC(=O)N3CCC[C@H]3[C@H](OC)[C@@H](C)C(=O)N[C@H](C)[C@@H](O)c3ccccc3)OC)C(C)C)C(C)C)cc2)C(C)C)C1=O)NC(=O)[C@H](Cc1ccc(O)cc1)NC(=O)[C@H](CO)NC(=O)[C@H](Cc1c[nH]c2ccccc12)NC(=O)[C@H](Cc1c[nH]cn1)NC(=O)[C@@H]1CCC(=O)N1 (stereo partly drawn) [LD5-mc-vc-PABC-MMAE],Body Weight,[1],21 g and 20 g (2×)
same,"adverse effects (acute toxic symptoms, autonomic effects)","[2]; 3 and 10 mg/kg IV, 15 minutes, 1 and 2 hours",No significant adverse effects
same,Mortality (death/test),"[2]; IV 3 mg/kg, 15 min",0/3
same,Mortality (death/test),"[2]; IV 3 mg/kg, 1 hr",0/3
same,Mortality (death/test),"[2]; IV 3 mg/kg, 2 hr",0/3
same,Mortality (death/test),"[2]; IV 3 mg/kg, 24 hr",0/3
same,Mortality (death/test),"[2]; IV 3 mg/kg, 48 hr",0/3
same,Mortality (death/test),"[2]; IV 3 mg/kg, 72 hr",0/3
same,Body Weight,"[2]; IV 3 mg/kg, 72 hr",21 g
same,Body Weight,"[2]; IV 3 mg/kg, time 0 (pre-dose)",21 g
same,Mortality (death/test),"[2]; IV 10 mg/kg, 15 min",0/3
same,Mortality (death/test),"[2]; IV 10 mg/kg, 1 hr",0/3
same,Mortality (death/test),"[2]; IV 10 mg/kg, 2 hr",0/3
same,Mortality (death/test),"[2]; IV 10 mg/kg, 24 hr",0/3
same,Mortality (death/test),"[2]; IV 10 mg/kg, 48 hr",0/3
same,Mortality (death/test),"[2]; IV 10 mg/kg, 72 hr",0/3
same,Body Weight,"[2]; IV 10 mg/kg, time 0 (pre-dose)",20 g
same,α-tubulin signal compared to MMAE treatment,[3],significantly higher
same,total drug released as MMAE,[4],less than 3%
same,MTD,[5],> 10 mg/kg
same,"adverse effects (acute toxic symptoms, autonomic effects)","[6]; 10 mg/kg IV, after first and second administrations on Day 1 and 8",No marked adverse effects
same,Mortality (death/test),"[6]; IV 10 mg/kg on days 1 and 8, Day 1",0/3
same,Body Weight,"[6]; IV 10 mg/kg on days 1 and 8, Day 1, individual animals",22 g (2×) and 21 g
same,Mortality (death/test),"[6]; IV 10 mg/kg on days 1 and 8, Day 2",0/3
same,Mortality (death/test),"[6]; IV 10 mg/kg on days 1 and 8, Day 3",0/3
same,Mortality (death/test),"[6]; IV 10 mg/kg on days 1 and 8, Day 4",0/3
same,Body Weight,"[6]; IV 10 mg/kg on days 1 and 8, Day 4, individual animals",23 g (2×) and 22 g
same,Mortality (death/test),"[6]; IV 10 mg/kg on days 1 and 8, Day 5",0/3
same,Mortality (death/test),"[6]; IV 10 mg/kg on days 1 and 8, Day 6",0/3
same,Mortality (death/test),"[6]; IV 10 mg/kg on days 1 and 8, Day 7",0/3
same,Mortality (death/test),"[6]; IV 10 mg/kg on days 1 and 8, Day 8",0/3
same,Body Weight,"[6]; IV 10 mg/kg on days 1 and 8, Day 8, individual animals",23 g (2×) and 22 g
same,Mortality (death/test),"[6]; IV 10 mg/kg on days 1 and 8, Day 9",0/3
same,Mortality (death/test),"[6]; IV 10 mg/kg on days 1 and 8, Day 10",0/3
same,Mortality (death/test),"[6]; IV 10 mg/kg on days 1 and 8, Day 11",0/3
same,Mortality (death/test),"[6]; IV 10 mg/kg on days 1 and 8, Day 12",0/3
same,Body Weight,"[6]; IV 10 mg/kg on days 1 and 8, Day 12, individual animals",24 g (2×) and 23 g
same,Mortality (death/test),"[6]; IV 10 mg/kg on days 1 and 8, Day 13",0/3
same,Mortality (death/test),"[6]; IV 10 mg/kg on days 1 and 8, Day 14",0/3
same,Mortality (death/test),"[6]; IV 10 mg/kg on days 1 and 8, Day 15",0/3
same,Body Weight,"[6]; IV 10 mg/kg on days 1 and 8, Day 15, individual animals",25 g (2×) and 24 g
same,gross necropsy,[6]; both phases,No abnormality was found
